Measured values: the nanobody polyreactivity screen of Harvey et al. (2022)

Assay: yeast display, Sf9 membrane polyspecificity reagent, FACS + sequencing; frameworks hold sequencing errors
Summary of the method: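 A nanobody's polyreactivity label depends on the gate it was sorted from. Yeast display cells were stained with 10% biotinylated, detergent-solubilized Sf9 membrane reagent for 1 hour at 4 °C, enriched on streptavidin microbeads and sorted by FACS. The low and high (top ~1%) gates were set on anti-HA fluorescence for expression and streptavidin fluorescence for reagent binding.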

| Sequence | polyreactivity (PSR sort gate) |
| --- | --- |
| QVQLVESGGGLVQAGGSLRLSCAASGFTFDAYTMGWYSQAPGKERELVAAITWSGGRTYYADSVKGRCTISRDNAKTTVYLQLNSLKPEDTALYNCAADSPTSLYEYWGQGTQVTVSS | high polyreactivity |
| QDQLVESGGVLFQAGGSLRLTCAAYGRILYHYDMGWYRQAPGKERELVAAITRGAGTNYADSVKGRFTISRDNAKNTVYVQMNSLKPEDTAVYYCNADRFIVTRSRRGDYWGQGTQVTVSS | low polyreactivity |
| QVQLVESAGGIVQAGGSLRLRCAASGRTVVNSMGWYRQAPGKERELVAAISTNGGRTYYADSVKWRFTISRDNAKNTVYLQMNSLKPEDTAVYYCAKVLGIRPTYYYWGQGYQVTVSS | high polyreactivity |
| QVQLVESGGGLVQAGGSLRLSCAASGSIFYTNAMGWYRQAPGKERELVAVITASGGSTYYADSVKGRFTISRDNAKNTVYLQMNSLKPEDTSVYYCAADPVFNYDYWGQGTQVTVSS | low polyreactivity |
| QVQLVESGGGLVQAGGSLRLSCAASGRIFTIYAMGWYRQAPGKERELVAAITRGGNTNYADSVKGRFTISRDNAKNTVYLQMNSLKPEDTAVYDGAVGSRSWPYDYWGQGSQVTVSS | high polyreactivity |
| QVQLVESGGGLVQAGGSLRLSCAASGITFGIYVMGWYRPAPGKEWELVATISRSDDNTYYADSVKGRFTISRDNAKNTVYLQMNSLKPEDTAVYYCAAYWYDLYWDYYTFDYWGQGTQVTVSS | low polyreactivity |
| QVQLVESGGGLVQAGGSLRLSCAASGRIFGRYAMGWYRQAPGKERELVAVISARGARTYYADSVKGRFTISRDNAKNTVYLQMNSLKPEDTAVYYCAVDQYATDDYWGQGTQVTVSS | high polyreactivity |
| QVQLVESGGGLVQAGGSLRLSCAASGRIYNSNAMGWYRQAPGKERQLVAAITTSGASTYYADSVKGRFTISRDNAKNTVYLQMNSLKPEDTSVYYCATYAVVYPFAMDYWGQGTQVTVSS | low polyreactivity |
| QVQLVQSGGRLVQAGGSLRLSCAASGLIFVHYTMGWYRQAPGKERELVASINSGGSTNYADSVKGRFTISRDNAKNTVYLQMISLKPEDTAVYYCADRRVVFWRRMYYWGQGTQVTVSS | high polyreactivity |
| QVQLVESGVGLVQAGGSLRLSCAASGYIFYQYAMGWYRQAPGKERELVSTISWRGGSTYYADSVKGRFTISRDNAKNTVYLQMNCLKPEDTAVYYCAARKRPYTVINGMDYWGQGTQVTVSS | low polyreactivity |
| QVQLVESGGGLDQAGGSLRLSCAASGRTFLVYAMGWYRQAPGKERELVAAISRSGGSTYYADSVMRRFTISRDNAKNNVYLQMNSLIPEDTAVYYCAAKKTGRYYWGQGTEVTVSS | high polyreactivity |
| QVQLVESGGGLVQAGGSLRLSCAASGSLSYTYGMGCYRQAPGKERELVAAISTSGGNTYYADSVKGRFTISRDNAKNSVYLQMNSLKPEDTAVYYCSAYYGRGSIKRYYYWGQGTQVTVSS | high polyreactivity |
| QVQLVESGGGLFQAGGSLRLSCAASGSIFGDYAMGWYRQAPGKERELVAAITSSGGITYYADSVKGRFTISRDNAKNTVYLQMNSLKPEDTAVYYCAAYGYGSNYRYTCYYYWGQGTQVTVSS | low polyreactivity |
| QVQLVESGGGLVQAGGSLRLSCAASGFIFSGYAMGWYRQAPGKERELVATISGSGGSTYYADSVKGRFTISRDNAKNTVYLQMNSLKPEDTAVYYCAKRSIVGYRYSGYDYWGQGTQVTVSS | high polyreactivity |
| QVQLVESGAGLVQAGGSLRLSCAASGSIINRNAMGGYRQAPGKERELVAAITRRGGSTYYADSVKGRFTISRDNAKNTVYLQKYSLKPEDTAVYYCNAVKALSSWSYEYWGQGTQGTVSS | high polyreactivity |
| QVQLVESGGGLVQAGGSLRLSCAASGSTFGPYAMAWYRQAPGKERELVAAIDKSGGSTYYADSVKGRFTLSRDNAKNTVYLQMNSLKPEDTAVYYCAADLVRYFGYYDYDSWGQGTQVTVSS | low polyreactivity |
| QVQLVESGGGLVQAGGSLRLSCASSGYIFRSYAMGWYRQAPGKERELVATISWIGGGTSYADSVKGRFTISRDNAKNTVYLQMNSLKPEDTAVYYCAAGPWAYGRRHAYYSRSFDYWGQGTQVTVSS | high polyreactivity |
| QVQLVESRGGLVHAGGSLRLSCAASGSIFQSYYMGWYRQAPGKERELVAAISWSGSTTYYADSVKGRFTISRDNAKNTVYLQMNSLKPEDTAVYYCAVDSNPPDWWAVIYGYWGQGTQVTVSS | low polyreactivity |
| QVQLVESGGGLVQAGGSLRLICAASGPTFYYYAMGWYTQAPGKERELVARISRGGSTNYADSVKGRFTISRDNAKNTVYLQMNSLKAEDTAVYYFAITISYTGGYWGYDYWGQGTQVTVSS | high polyreactivity |
| QVQLVESGGGLVQEGGSLRLSCAASGRIFNGYAMGCYRQAPGKERELVAAINSSGGSTYYADSVKGRFTISRDNAKNTVYLQMNSLKPEDTAVYYCARVSYHYRTYDYWGQGTQVTVSS | high polyreactivity |
| QVQLVESGGGLVQAGGSLRLSCAASGLTIVNYAMGWYRQAPGKERELVAAITVNGGRTYYADSVKGRFTISRDNAKNTVYLQMNSLKPEDTAVYYCAAVYYRHWYTYSSDYWGQGTQVTVSS | high polyreactivity |
| QVQLVESGGGLVQAGGSLRLSCAASGITFYKNVMGWYRQAPGKERELVAAISSSGGSTYYADSVKGRFTISRDNAKNTVYLQMNSLKPEDTAVYYCAADEDDVVSGFLRYFYVAYYYWGQGTQVTVSS | low polyreactivity |

| Sequence | polyreactivity (PSR sort gate) |
| --- | --- |
| QDQLVESGGGLVQAGGSLRLSCAASGSIFYRNAMGWYIQATGKERELVAAISSDGSTNYADSVKGRFTISRDNAKNTVYLQMNSLKPEDTAVYFCAAPWTQILDYWGQGTQVTVSS | low polyreactivity |
| QVQLVESGGGLVQAGGSLRLSCAASGFTLSRYVMGWYRQAPGKERELVATISTDTGDTYYADSVKGRFTISRDNAKNTVYLQMNSLKPEDTAVYYCAVEEWYIYLDLYWSYYYWGQGTQVTVSS | high polyreactivity |
| QFQLVESGGGLVQAGGSLRLSCAASGRTSLGYDMRWYRQAPGKERELVAAITRSGGYTYYADSVKGRFTISRDNAKNTVYLQMNSLKPEDTAVYYCAAYWRYSGYYYWGQGTQVTVSS | low polyreactivity |
| QVQLVESGGGLVQAGGSLRLSCAASGRIFYVYTMGWYRQAPGKERELVAAISWSGGSTHYADSVKGRFTISRDNAKNTVYLQMNSLKPEDTAGYYCNKGVVSRVAFEYWGQGTQLTVSS | low polyreactivity |
| QVQLVESGGALVQAGGSLRLSCAASGFIFGSYVMGWYRQAPGKERELVAAISQIGGRTYYADSVKGRFTISRDNAKKTVYLQMNSLKPEDTAVYYCAARWAGYRYVGGYWRDDMDYWGQGTQVTVSS | high polyreactivity |
| QVQLVESGGGLVQAGGSLRLSCAASGSIFKANGMGWYRQAPGKEREFVAAITRSGATTYYADSVKGRFTISRDNAKNTVYLQMNSLKPEDTAVYYCNVKAWRDLYYAGFDYWGQGTQVTVSS | low polyreactivity |
| QVQLVESGGALVQAGGSLRLSCAYTGLIFGLYAMGWYTQAPGQERDFVAAITSVTSTYYADSVKGRFTISRDNAKNTFFLQMISLKPEDTAVYYCAADSPVDYLYALYLSVRDDYWGHGTQVTVSS | low polyreactivity |
| QVQLVESGGGLVQAGGSLRLSCADSGFTFYRNAMGWYRQAPGKERELVAAITSTGSTNYADSVKGRFTISRDNAKNTVYLQMNSLKPEDTAVYYCIKRRFGRQGMDYWGQGTQVTVSS | low polyreactivity |
| QVQLVESGGGLVQAGGSLRLSCAASGFTFSPNAMRWYRQAPGKERELVAAIDWSGDRTYYADSVKGRFTISRDNAKNTVYLQMNSLKPEDTAVYYCAADIRDPGVPMDYWGQGTQVTVSS | low polyreactivity |
| QVQLVESGGGLVQAGGSLRLSCAASGSIIGRYAMGWYRQAPAKERELVATITFRDTSTYYADSVKGRFTISRDNAKNTVYLQMNSLKTEDTAVYYCAAVRADLWDIARYDYWGQGTQVTVSS | low polyreactivity |
| QVQLVESGGGLVQAGGSLRLICAASGYTFYYAMGWYRQAPGKERELVAAISAGGGRTYYADSVKGRFTISRDNAKITVYLQMNSLKPEDTAVYYCNRVYRLTAYGYDYWGQGTQVTVSS | high polyreactivity |
| QVQLVESGGGLVQAGGSLRLSCAASGSIFTLYARGWYREAPGKERELVAAITWTGGSTYYADSVKGRFTISRDNAKNTVYLQMNSLKPEDTAVYYCATDAYWQSNGAFYYVARHGGYWGQGTQVTVSS | low polyreactivity |
| QVQLVESGGGLVQAGGRLRLSCAASGSIFAYYAMGSYRQAPGKERELVAAISSSGGSTTYADSVKGRFTISRDNAKYTVYLQMNSLKPDDTAVYYCNAAWRRSRYYNWGQGTQVTVSS | high polyreactivity |
| HVQLVESGGGLVQAGASLRLSCAASGRTFGRYAMGWSRQAPGKERELVAAIRSGGSTYYADSVKGRFTISRDNAKNTVYLQMNSLNPEDPAVYYCAADIARHLTGFAYDRLDYCGQGTQVTVSS | low polyreactivity |
| QVQLVESGGGLVQAGGSLRLSCAASGNIFYRKARGWYRQAPGKERELVAAITSGGGSTYYADSVKGRFTISRDNAKNTVYLQMNSLKPVDTAVYYCNAYAWNYFGIKVTYDYWGQGTQVTVSS | high polyreactivity |
| QVQLVESGGGFVQAGGSLRLSCAASGSICAGYAMGWYRQAPGKERVLVAGITIGGSTNYADSVKGRFTISRDNAKNTVYLQMNSLKPEDTAVYYCAARRVQSVYRIPRRYHSYGYWGQGTQVTVSS | high polyreactivity |
| QVQLVESGGGLVQAGGSLRLSCAASGFIFSLYAMGWYRQAPGKERELVAGISESGGSTYYADSVKGRFTISRDNAKNTVYLQMNSLKPEDTAVYYCNADDTVYFIKAGDYWGQGTQVTVSS | high polyreactivity |
| QGQLVESGGGLVQAGGSLRLSCAASGSTFWRYAMGWYRQAPGKERELVAAISRSGGSTYYADSVKGRFTISRDNAKNTVYLQMHSLKPEDTAFYYCAARYPTPYRKLGSWGQGTQVSVSS | high polyreactivity |
| QVQLVESGRGLVQAGVSLRLSCAASGSIFDPNAMGWYRQAPGKERELVAAITSGGGSTYYADSVKGRFTISRDNAKNTVYLQMNSLKPEDTAVYYCNKVFVLQYKFVAWFDYWGQGTQVTVSS | low polyreactivity |
| QVQLHESGGGLVQAGGSLRLSCAASGTISYAGPMGWYRQAPGKEREFVAGIGVGSNTNYADSVKGRYTIIRDNAKNTVYLQMNSLKPEDTAVYYCAVGGYAPLGRPDWGQGTQVTVRS | low polyreactivity |
| QVQLVESGGGLVQAGGSLRLSCAASGFIFGRYAMGWYRQAPGKEREFVAAITWRGGNTYYADSVKGRFTISRDNAKNTVYLQMNSLKPEDTAVYYCAKKTAGHPWGPIYDYWGQGTQVTVSS | high polyreactivity |
